Test results as given in the supplement of paper PMC10065799, “High-throughput profiling of sequence recognition by tyrosine kinases and SH2 domains using bacterial peptide display” (eLife, 2023).
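Note: 11-residue human phosphosite peptides and single-mutation variants displayed on the E. coli surface, counted by deep sequencing, each peptide's frequency after selection divided by its frequency in the unselected input library; frequency after pTyr selection over input frequency; kinase dosed for 20-30% of maximal phosphorylation in three min.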

What follows are sequences tested on Fer (mouse) (assay: phosphorylation enrichment, bacterial display (enrichment ratio); higher = better substrate or ligand; peptides without Tyr show the background).
EFQKKYSDADI [CKAP5_Y1860_K1857Q_YF] gave a phosphorylation enrichment of 0.378.
With MKGDYYCYLAE [YWHAG_Y131_R132C] the phosphorylation enrichment was 1.07.
Work on PESCLYKESWL [IQGAP2_Y630] yielded a phosphorylation enrichment of 1.18.
KFLENYLNRLL [PLD2_Y169_YF] was tested, and the phosphorylation enrichment was 0.462.
For IGEGTYGQVFK [CDK13_Y716_YF], the phosphorylation enrichment was 0.636.
KRELRYMHSRV [ABCD1_Y281_G277R] was tested, and the phosphorylation enrichment was 0.272.
KELSSYKHLTL [SLIT2_Y776_N775S] showed a phosphorylation enrichment of 0.497.
Sequence QMVGMYASSYM [AVPR2_Y124] has a phosphorylation enrichment of 1.07.
With GGFSRYDEGSG [RECQL5_Y484_D480G] the phosphorylation enrichment was 0.483.
Sequence AVLSLYASGST [ACTG2_Y144_R148S] has a phosphorylation enrichment of 0.558.
For QAPPIYLDVLG [NTRK1_Y791_V790I], the phosphorylation enrichment was 3.26.
With FQASFYRRGDR [LTK_Y677_R673Q_YF] the phosphorylation enrichment was 0.495.
QDLRLYRPHLA [BTK_Y617_G613D] gave a phosphorylation enrichment of 0.5.
Work on VDSNPYSRLMA [UBA5_Y53] yielded a phosphorylation enrichment of 1.04.
Work on KTGNIYRTEYG [MRPL3_Y265_M261T] yielded a phosphorylation enrichment of 0.629.
With SLIDMYSEVLA [OPA1_Y268_D273A] the phosphorylation enrichment was 0.891.
For EDASEYFENYI [PARP4_Y214], the phosphorylation enrichment was 0.51.
For DKGTLYIVEQI [PLBD1_Y375], the phosphorylation enrichment was 0.463.
Work on KDAGDYKYKAK [LRIT3_Y326_C328Y] yielded a phosphorylation enrichment of 0.256.
TSSAVYMNLAS [GATAD2B_Y317_I316V] gave a phosphorylation enrichment of 0.818.
NIRKKYFRAIL [CHD7_Y1217_Q1214R_YF] was tested, and the phosphorylation enrichment was 0.394.
For RGKEPYTKKAL [TTC21B_Y160], the phosphorylation enrichment was 0.299.
SHSMRYFDTAV [HLA-C_Y31] gave a phosphorylation enrichment of 0.384.
For AGGTRYRYVSQ [UCN3_Y95_R91G], the phosphorylation enrichment was 0.377.
AEMTGYVMTRW [MAPK13_Y182_V184M] showed a phosphorylation enrichment of 0.537.
In the case of VATRWYRSPEL [CDKL5_Y177], the phosphorylation enrichment is reported as 0.384.
With TSKLSYLDPRI [TOP1_Y723_N722S] the phosphorylation enrichment was 0.619.
Work on GDFFRSLAEVA [YWHAG_Y133_Y133S_YF] yielded a phosphorylation enrichment of 0.438.
Sequence DSMQSYDLDFP [UNC13B_Y243_YF] has a phosphorylation enrichment of 0.541.

Each sequence was assayed on c-Abl (mouse) in the same assay as above.
EFQKKYSDADI [CKAP5_Y1860_K1857Q_YF] gave a phosphorylation enrichment of 0.745.
MKGDYYCYLAE [YWHAG_Y131_R132C] gave a phosphorylation enrichment of 1.85.
PESCLYKESWL [IQGAP2_Y630] was tested, and the phosphorylation enrichment was 1.46.
Work on KFLENYLNRLL [PLD2_Y169_YF] yielded a phosphorylation enrichment of 0.471.
IGEGTYGQVFK [CDK13_Y716_YF] was tested, and the phosphorylation enrichment was 0.566.
Work on KRELRYMHSRV [ABCD1_Y281_G277R] yielded a phosphorylation enrichment of 0.486.
Work on KELSSYKHLTL [SLIT2_Y776_N775S] yielded a phosphorylation enrichment of 0.511.
Sequence QMVGMYASSYM [AVPR2_Y124] has a phosphorylation enrichment of 0.921.
GGFSRYDEGSG [RECQL5_Y484_D480G] gave a phosphorylation enrichment of 0.636.
AVLSLYASGST [ACTG2_Y144_R148S] gave a phosphorylation enrichment of 0.829.
For QAPPIYLDVLG [NTRK1_Y791_V790I], the phosphorylation enrichment was 0.878.
With FQASFYRRGDR [LTK_Y677_R673Q_YF] the phosphorylation enrichment was 0.647.
Work on QDLRLYRPHLA [BTK_Y617_G613D] yielded a phosphorylation enrichment of 0.571.
VDSNPYSRLMA [UBA5_Y53] gave a phosphorylation enrichment of 0.469.
KTGNIYRTEYG [MRPL3_Y265_M261T] was tested, and the phosphorylation enrichment was 0.441.
SLIDMYSEVLA [OPA1_Y268_D273A] was tested, and the phosphorylation enrichment was 0.539.
EDASEYFENYI [PARP4_Y214] gave a phosphorylation enrichment of 0.658.
DKGTLYIVEQI [PLBD1_Y375] gave a phosphorylation enrichment of 0.737.
Work on KDAGDYKYKAK [LRIT3_Y326_C328Y] yielded a phosphorylation enrichment of 0.571.
Sequence TSSAVYMNLAS [GATAD2B_Y317_I316V] has a phosphorylation enrichment of 0.755.
With NIRKKYFRAIL [CHD7_Y1217_Q1214R_YF] the phosphorylation enrichment was 0.633.
RGKEPYTKKAL [TTC21B_Y160] was tested, and the phosphorylation enrichment was 0.933.
SHSMRYFDTAV [HLA-C_Y31] showed a phosphorylation enrichment of 0.436.
AGGTRYRYVSQ [UCN3_Y95_R91G] showed a phosphorylation enrichment of 0.474.
AEMTGYVMTRW [MAPK13_Y182_V184M] was tested, and the phosphorylation enrichment was 0.709.
Sequence VATRWYRSPEL [CDKL5_Y177] has a phosphorylation enrichment of 0.575.
Sequence TSKLSYLDPRI [TOP1_Y723_N722S] has a phosphorylation enrichment of 0.567.
For GDFFRSLAEVA [YWHAG_Y133_Y133S_YF], the phosphorylation enrichment was 0.721.
With DSMQSYDLDFP [UNC13B_Y243_YF] the phosphorylation enrichment was 0.623.

These sequences were tested against EPHB1 (UniProt P54762) in the same assay as above.
Sequence of EPHB1 (P54762 whole entry, looked up): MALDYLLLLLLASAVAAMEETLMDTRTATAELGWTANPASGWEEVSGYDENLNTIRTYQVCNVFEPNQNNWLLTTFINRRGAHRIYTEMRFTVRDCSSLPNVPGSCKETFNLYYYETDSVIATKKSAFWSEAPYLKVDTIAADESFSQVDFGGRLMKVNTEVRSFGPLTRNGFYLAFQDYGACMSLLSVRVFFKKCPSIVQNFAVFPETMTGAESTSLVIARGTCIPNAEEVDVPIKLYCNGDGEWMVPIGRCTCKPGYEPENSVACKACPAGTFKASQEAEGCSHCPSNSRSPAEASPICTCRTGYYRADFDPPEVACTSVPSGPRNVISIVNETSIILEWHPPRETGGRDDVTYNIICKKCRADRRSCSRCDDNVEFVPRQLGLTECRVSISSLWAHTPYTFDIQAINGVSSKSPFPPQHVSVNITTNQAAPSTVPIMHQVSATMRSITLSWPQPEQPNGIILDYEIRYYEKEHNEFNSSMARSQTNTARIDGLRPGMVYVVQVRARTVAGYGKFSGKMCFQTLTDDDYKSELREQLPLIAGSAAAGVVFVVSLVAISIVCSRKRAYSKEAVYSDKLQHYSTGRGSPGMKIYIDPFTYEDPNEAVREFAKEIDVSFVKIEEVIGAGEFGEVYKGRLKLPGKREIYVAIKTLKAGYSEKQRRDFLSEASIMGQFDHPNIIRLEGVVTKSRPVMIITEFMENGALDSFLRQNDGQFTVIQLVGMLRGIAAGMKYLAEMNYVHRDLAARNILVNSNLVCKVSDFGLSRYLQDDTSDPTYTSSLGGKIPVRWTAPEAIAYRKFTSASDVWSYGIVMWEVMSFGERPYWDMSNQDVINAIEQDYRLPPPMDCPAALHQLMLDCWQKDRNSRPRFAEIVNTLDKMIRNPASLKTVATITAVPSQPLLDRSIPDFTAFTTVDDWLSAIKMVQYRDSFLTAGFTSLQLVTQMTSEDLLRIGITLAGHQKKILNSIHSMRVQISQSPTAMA
For EFQKKYSDADI [CKAP5_Y1860_K1857Q_YF], the phosphorylation enrichment was 0.399.
In the case of MKGDYYCYLAE [YWHAG_Y131_R132C], the phosphorylation enrichment is reported as 5.59.
Work on PESCLYKESWL [IQGAP2_Y630] yielded a phosphorylation enrichment of 1.29.
With KFLENYLNRLL [PLD2_Y169_YF] the phosphorylation enrichment was 0.464.
Sequence IGEGTYGQVFK [CDK13_Y716_YF] has a phosphorylation enrichment of 0.62.
With KRELRYMHSRV [ABCD1_Y281_G277R] the phosphorylation enrichment was 0.282.
With KELSSYKHLTL [SLIT2_Y776_N775S] the phosphorylation enrichment was 0.315.
QMVGMYASSYM [AVPR2_Y124] gave a phosphorylation enrichment of 1.21.
For GGFSRYDEGSG [RECQL5_Y484_D480G], the phosphorylation enrichment was 0.431.
Work on AVLSLYASGST [ACTG2_Y144_R148S] yielded a phosphorylation enrichment of 0.729.
QAPPIYLDVLG [NTRK1_Y791_V790I] showed a phosphorylation enrichment of 13.6.
FQASFYRRGDR [LTK_Y677_R673Q_YF] showed a phosphorylation enrichment of 0.443.
QDLRLYRPHLA [BTK_Y617_G613D] gave a phosphorylation enrichment of 0.517.
For VDSNPYSRLMA [UBA5_Y53], the phosphorylation enrichment was 0.465.
In the case of KTGNIYRTEYG [MRPL3_Y265_M261T], the phosphorylation enrichment is reported as 0.451.
SLIDMYSEVLA [OPA1_Y268_D273A] was tested, and the phosphorylation enrichment was 0.766.
Sequence EDASEYFENYI [PARP4_Y214] has a phosphorylation enrichment of 0.549.
DKGTLYIVEQI [PLBD1_Y375] gave a phosphorylation enrichment of 0.579.
Work on KDAGDYKYKAK [LRIT3_Y326_C328Y] yielded a phosphorylation enrichment of 0.353.
In the case of TSSAVYMNLAS [GATAD2B_Y317_I316V], the phosphorylation enrichment is reported as 1.67.
With NIRKKYFRAIL [CHD7_Y1217_Q1214R_YF] the phosphorylation enrichment was 0.466.
RGKEPYTKKAL [TTC21B_Y160] gave a phosphorylation enrichment of 0.596.
SHSMRYFDTAV [HLA-C_Y31] gave a phosphorylation enrichment of 0.42.
AGGTRYRYVSQ [UCN3_Y95_R91G] was tested, and the phosphorylation enrichment was 0.574.
AEMTGYVMTRW [MAPK13_Y182_V184M] was tested, and the phosphorylation enrichment was 0.656.
VATRWYRSPEL [CDKL5_Y177] gave a phosphorylation enrichment of 0.421.
Work on TSKLSYLDPRI [TOP1_Y723_N722S] yielded a phosphorylation enrichment of 0.607.
Sequence GDFFRSLAEVA [YWHAG_Y133_Y133S_YF] has a phosphorylation enrichment of 0.423.
Sequence DSMQSYDLDFP [UNC13B_Y243_YF] has a phosphorylation enrichment of 0.642.

The sequences below were run against Fes (UniProt P07332) in the same assay as above.
Sequence of Fes (P07332 whole entry, looked up): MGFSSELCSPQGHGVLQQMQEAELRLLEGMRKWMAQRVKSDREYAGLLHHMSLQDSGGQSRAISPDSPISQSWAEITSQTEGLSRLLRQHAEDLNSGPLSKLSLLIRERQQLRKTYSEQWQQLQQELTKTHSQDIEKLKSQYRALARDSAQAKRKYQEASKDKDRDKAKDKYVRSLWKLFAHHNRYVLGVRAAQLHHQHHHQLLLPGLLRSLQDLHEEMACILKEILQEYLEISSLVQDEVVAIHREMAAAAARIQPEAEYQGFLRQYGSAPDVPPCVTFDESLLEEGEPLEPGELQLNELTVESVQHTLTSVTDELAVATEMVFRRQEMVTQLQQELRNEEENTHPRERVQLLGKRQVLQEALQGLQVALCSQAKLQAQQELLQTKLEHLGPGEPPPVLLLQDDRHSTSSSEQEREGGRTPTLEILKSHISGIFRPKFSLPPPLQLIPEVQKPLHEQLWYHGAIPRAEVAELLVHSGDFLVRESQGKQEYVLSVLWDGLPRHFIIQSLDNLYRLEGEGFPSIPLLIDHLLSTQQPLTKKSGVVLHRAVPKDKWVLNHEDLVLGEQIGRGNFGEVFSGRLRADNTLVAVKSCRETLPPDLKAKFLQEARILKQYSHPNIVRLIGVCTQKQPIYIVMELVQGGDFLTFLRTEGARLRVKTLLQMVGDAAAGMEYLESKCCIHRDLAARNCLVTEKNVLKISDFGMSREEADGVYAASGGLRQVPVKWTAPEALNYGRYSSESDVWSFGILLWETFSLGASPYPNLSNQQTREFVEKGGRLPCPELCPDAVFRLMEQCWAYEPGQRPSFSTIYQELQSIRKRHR
Sequence EFQKKYSDADI [CKAP5_Y1860_K1857Q_YF] has a phosphorylation enrichment of 0.921.
MKGDYYCYLAE [YWHAG_Y131_R132C] was tested, and the phosphorylation enrichment was 1.5.
For PESCLYKESWL [IQGAP2_Y630], the phosphorylation enrichment was 2.81.
With KFLENYLNRLL [PLD2_Y169_YF] the phosphorylation enrichment was 0.768.
For IGEGTYGQVFK [CDK13_Y716_YF], the phosphorylation enrichment was 0.665.
Sequence KRELRYMHSRV [ABCD1_Y281_G277R] has a phosphorylation enrichment of 0.578.
With KELSSYKHLTL [SLIT2_Y776_N775S] the phosphorylation enrichment was 0.53.
QMVGMYASSYM [AVPR2_Y124] gave a phosphorylation enrichment of 1.07.
GGFSRYDEGSG [RECQL5_Y484_D480G] showed a phosphorylation enrichment of 0.928.
For AVLSLYASGST [ACTG2_Y144_R148S], the phosphorylation enrichment was 1.26.
QAPPIYLDVLG [NTRK1_Y791_V790I] showed a phosphorylation enrichment of 0.952.
FQASFYRRGDR [LTK_Y677_R673Q_YF] gave a phosphorylation enrichment of 0.688.
Sequence QDLRLYRPHLA [BTK_Y617_G613D] has a phosphorylation enrichment of 0.931.
VDSNPYSRLMA [UBA5_Y53] gave a phosphorylation enrichment of 0.657.
KTGNIYRTEYG [MRPL3_Y265_M261T] showed a phosphorylation enrichment of 0.633.
With SLIDMYSEVLA [OPA1_Y268_D273A] the phosphorylation enrichment was 1.03.
With EDASEYFENYI [PARP4_Y214] the phosphorylation enrichment was 1.21.
For DKGTLYIVEQI [PLBD1_Y375], the phosphorylation enrichment was 1.09.
In the case of KDAGDYKYKAK [LRIT3_Y326_C328Y], the phosphorylation enrichment is reported as 0.604.
Sequence TSSAVYMNLAS [GATAD2B_Y317_I316V] has a phosphorylation enrichment of 0.83.
For NIRKKYFRAIL [CHD7_Y1217_Q1214R_YF], the phosphorylation enrichment was 0.661.
RGKEPYTKKAL [TTC21B_Y160] gave a phosphorylation enrichment of 1.01.
In the case of SHSMRYFDTAV [HLA-C_Y31], the phosphorylation enrichment is reported as 0.586.
AGGTRYRYVSQ [UCN3_Y95_R91G] was tested, and the phosphorylation enrichment was 0.616.
Work on AEMTGYVMTRW [MAPK13_Y182_V184M] yielded a phosphorylation enrichment of 1.23.
VATRWYRSPEL [CDKL5_Y177] showed a phosphorylation enrichment of 0.73.
TSKLSYLDPRI [TOP1_Y723_N722S] gave a phosphorylation enrichment of 0.679.
GDFFRSLAEVA [YWHAG_Y133_Y133S_YF] gave a phosphorylation enrichment of 0.865.
With DSMQSYDLDFP [UNC13B_Y243_YF] the phosphorylation enrichment was 1.02.
